Here are results for five molecules from paper PMC4164784, “4E-BPs require non-canonical 4E-binding motifs and a lateral surface of eIF4E to repress translation” (Nature Communications, 2014).

Numbering of substitutions follows the chain as printed.

The target in assay [1] is T1, SHN-eIF4E (full length, WT) (Drosophila melanogaster, UniProt P48598-2 1-248).
T1 construct: eIF4E, Drosophila melanogaster; also called SHN-tagged eIF4E; SNH-tagged eIF4E; not shown: Strep-NusA-His (SHN), N-terminal, kept
T1 sequence (looked up): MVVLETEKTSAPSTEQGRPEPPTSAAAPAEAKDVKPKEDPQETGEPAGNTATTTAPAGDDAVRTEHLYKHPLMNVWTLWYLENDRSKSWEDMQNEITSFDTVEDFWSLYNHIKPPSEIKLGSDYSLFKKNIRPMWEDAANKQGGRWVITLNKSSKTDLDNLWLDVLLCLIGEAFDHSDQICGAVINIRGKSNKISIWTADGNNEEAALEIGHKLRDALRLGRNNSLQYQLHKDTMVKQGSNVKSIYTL
Put plainly: pull-down; 'kinetic assay': 1 μM purified SHN-eIF4E–GST-eIF4G complex prebound to Strep-Tactin beads, challenged with 5 μM (CUP, 4E-T) or 10 μM (Thor, eIF4G) competitor for the indicated times; 4 °C. The settings on record: both partners purified.

Assay [2] deals with T2, eIF4E (residues 69–248), purified (Drosophila melanogaster, UniProt P48598-2 69-248).
T2 construct: eIF4E, Drosophila melanogaster, residues 69–248; the methods say the tag was cleaved with HRV3C; also called truncated eIF4E; eIF4E trunc; not shown: His6, N-terminal, cleaved
T2 sequence (looked up): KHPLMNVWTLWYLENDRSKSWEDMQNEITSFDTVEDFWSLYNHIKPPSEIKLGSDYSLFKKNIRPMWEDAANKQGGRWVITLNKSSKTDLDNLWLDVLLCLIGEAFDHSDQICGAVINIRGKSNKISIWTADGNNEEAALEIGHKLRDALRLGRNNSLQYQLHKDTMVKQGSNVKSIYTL
The assay can be described thus: ITC; VP-ITC, 20 °C; eIF4E (69–248, WT or mutant, 1–20 μM) in the cell, tenfold concentrated GB1-stabilized peptides titrated in; 20 mM Na-phosphate pH 7.0, 150 mM NaCl; one-site binding model. The settings on record: both partners purified. Background: In ITC the heat of successive injections is recorded.

For assay [3], the target named is T3, eIF4E (residues 69–248) II-AA, purified (Drosophila melanogaster, UniProt P48598-2 69-248, Ile96 to Ala (II-AA) | Ile112 to Ala (II-AA)).
T3 construct: eIF4E, Drosophila melanogaster, residues 69–248; also called eIF4E (II-AA); not shown: His6, N-terminal, cleaved
T3 sequence (looked up): T2 sequence (looked up) with I28A, I44A
The description is as above. The settings on record: both partners purified.

Assay [4] has as its system firefly luciferase (F-Luc) reporter in S2 cells. Put plainly: Translation repression assay, F-Luc reporter in S2 cells. The assay is classed as cell-based, Drosophila melanogaster. The settings on record: coexpression (HA-CUP 1–402 0.05–0.2 μg, HA-Thor 0.1–0.5 μg plasmid; mutants at highest), 3 days, F-Luc activity normalized to mRNA, three independent experiments. The procedure:
S2 cells were transfected in 6-well plates using Effectene transfection reagent (Qiagen) according to the manufacturers protocol. The transfection mixtures contained: 0.1 μg of F-Luc reporter plasmid (F-Luc-V5), 0.3 μg of control RNA reporter, and increasing amounts of plasmids expressing HA-CUP (fragment 1–402; 0.05–0.2 μg) and HA-Thor (full length, 0.1–0.5 μg). The plasmids expressing the corresponding mutants or the HA peptide control were transfected at the highest concentration. In all the experiments, the cells were collected three days after transfection. The F-Luc activity was measured using the Dual-Luciferase reporter assay system (Promega). The northern blotting was performed as previously described. The F-Luc mRNA levels were determined by northern blotting and were normalized to those of the control RNA. The normalized F-Luc mRNA levels were then used to normalize the F-Luc activity, to obtain translation efficiencies.

B1: eIF4G peptide (residues 578–650) fused C-terminally to GB1 (domain or fragment, Drosophila melanogaster, UniProt O61380 578-650, looked up)
chain: PETTLNDKQDSTDLKVKVSAKISSIINYNEGQWSPNNPSGKKQYDREQLLQLREVKASRIQPEVKNVSILPQP
notes: eIF4G, Drosophila melanogaster, residues 578–650 (methods and legends); source: E. coli BL21 Star (DE3), purified (amylose, TEV cleavage, anion exchange, SEC); not shown: MBP, N-terminal, cleaved; GB1, C-terminal, kept
With B1, in assay [1], the “time to 50% dissociation of prebound GST-eIF4G (tenfold molar excess of competitor)” value was found to be 4 h. Also, in assay [2], the Kd was 17 nM, the dH is -18.5 ± 2 kcal/mol and the “stoichiometry N” value was found to be 0.99 ± 0.08. In assay [3], the Kd amounted to 40 nM, the dH was -16.24 ± 0.04 kcal/mol and the “stoichiometry N” value is 1.03 ± 0.01.

In the case of TKLIYERAFMKNLRGSPLSQTPPSNVPSCLLRGT (domain or fragment) [Thor C+NC peptide fused C-terminally to GB1], in assay [1], the “half-life of the eIF4E–eIF4G complexes (tenfold molar excess of competitor)” value was 37 ± 9 min. In assay [2], binding was characterised by a dissociation constant (Kd) of 1.4 nM, the dH was -16.8 ± 1 kcal/mol and the “stoichiometry N” value is 0.95 ± 0.02. For the same molecule, in assay [3], the Kd was found to be 470 nM, the dH was -7.6 ± 0.3 kcal/mol and the “stoichiometry N” value was determined as 0.97 ± 0.01.

B2: CUP C+NC peptide fused C-terminally to GB1 (domain or fragment, Drosophila melanogaster)
chain: STGIHKPGSLRAPKAVRPTTAPVVSSKPVKSYTRSRLMDIRNGMFNALMHRSKESFVMPRIATCDDIELEGRLRRMNIWRTSDGTRFRTRSTTANLNMNNNNNNECMPAFFKNKNKPNLISDESIIQSQP
notes: CUP, Drosophila melanogaster, canonical and non-canonical 4E-BMs; source: E. coli BL21 Star (DE3), purified (amylose, HRV3C cleavage, SEC); not shown: MBP, N-terminal, cleaved; GB1, C-terminal, kept
Take B2: in assay [1], the “time to 50% dissociation of prebound GST-eIF4G (fivefold molar excess of competitor)” value was 2.5 ± 0.5 min. Also, in assay [2], the Kd came out at 9.1 nM, the dH is -34.5 ± 0.35 kcal/mol and the “stoichiometry N” value stood at 1.05 ± 0.02. Moreover, in assay [3], the Kd turned out to be 50 nM, the dH is -18.6 ± 0.7 kcal/mol and the “stoichiometry N” value was 0.98 ± 0.01.

B3: CUP N-terminal fragment: CUP residues 1–402 (protein, UniProt Q9VMA3 1-402, looked up, fragment)
chain: MQMAEAEQENGAGALKIATNAGATDRPAHQQLPLPVEDQQDEVLTPAEKGKFEYPPPPPPPTPVQAPLATKATALNASQEHDDDEANSEKWEDPCAPPPPPPLPTSAFLATGLGYLKLPAFKLKDALEKAITKLEANKRTLKASPESSRSIKNKNVVALEMLPRRSNPETIGDGSMLASTSTAVMLQTKKPAVIVEMERRCKIINLLAKQNQILESISGEAIPMHGPSKHLHEDEGLTLQVLSARASTPYTQPSSMLSCTAVSCDLEHDSPRKQVASKEAVPEQQSSQVQQKRPPSTGIHKPGSLRAPKAVRPTTAPVVSSKPVKSYTRSRLMDIRNGMFNALMHRSKESFVMPRIATCDDIELEGRLRRMNIWRTSDGTRFRTRSTTANLNMNNNNNNECM
modifications: HA tag
For the molecule B3, the “repression of F-Luc reporter expression (in words)” value in assay [4] is “inhibited the expression of the F-Luc reporter in a dose-dependent manner”.

With RYSKVDLLALRYEGKSRQRPQCSTRLELQTLGFWKI (domain or fragment) [4E-T C+NC peptide fused C-terminally to GB1], the “time to 50% dissociation of prebound GST-eIF4G (fivefold molar excess of competitor)” value in assay [1] came out at 22 min. For the same molecule, in assay [2], the Kd is 5.6 nM, the dH is -22.8 ± 3 kcal/mol and the “stoichiometry N” value came to 0.95 ± 0.01. Also, in assay [3], the Kd was 8.8 nM, the dH was -12.9 ± 0.3 kcal/mol and the “stoichiometry N” value was determined as 1.03 ± 0.04.

The Kd is the concentration at which binding is half-saturated. A higher Kd goes with a looser complex. For orientation: stoichiometry N means a count of units in the complex or per binding partner.
